Experiment [1] concerns the target Mtb PhoP, phosphorylated with acetyl phosphate (AcP) (Mycobacterium tuberculosis) (UniProt P71814). The experiment is described as follows: cryo-EM structure.
For experiment [2] the target is unchanged. In words: […].
Experiment [3] has the same target. In words: […]. The source holds these as a separate data set.

Several values for one entry are separate records, joined by “and”; a condition that tells them apart may be missing. Identical values can stand only once.

In general, stoichiometry N refers to the number of molecules, sites or subunits per partner or assembly.

Take “Mtb PhoP, phosphorylated with acetyl phosphate (AcP) (from UniProt P71814 1-247) (natural protein)”: the stoichiometry N in experiment [1] is 2; in experiment [2], 6 and 4; in experiment [3] it was 2.

These data come from paper doi:10.1101/2024.05.16.594476.
